From patent US20140087995A1 (published 2014) come the findings set out here.

B1: N^α1-[2-[2-[2-[[2-[2-[2-[[(4S)-4-carboxy-4-(19-carboxynonadecanoylamino)butanoyl]amino]ethoxy]ethoxy]acetyl]amino]ethoxy]ethoxy]acetyl]-[Glu14,Arg17,Pro21,Pro27 … (peptide)
peptide: {C20 diacid-γGlu-AEEA-AEEA}-KCNTATCATQRLAEFLRHSSPNFGAIPSSTNVGSNTP-NH2
modifications: disulfide 2-7
SMILES: CC[C@H](C)[C@H](NC(=O)[C@H](C)NC(=O)CNC(=O)[C@H](Cc1ccccc1)NC(=O)[C@H](CC(N)=O)NC(=O)[C@@H]1CCCN1C(=O)[C@H](CO)NC(=O)[C@H](CO)NC(=O)[C@H](Cc1c[nH]cn1)NC(=O)[C@H](CCCNC(=N)N)NC(=O)[C@H](CC(C)C)NC(=O)[C@H](Cc1ccccc1)NC(=O)[C@H](CCC(=O)O)NC(=O)[C@H](C)NC(=O)[C@H](CC(C)C)NC(=O)[C@H](CCCNC(=N)N)NC(=O)[C@H](CCC(N)=O)NC(=O)[C@@H](NC(=O)[C@H](C)NC(=O)[C@@H]1CSSC[C@H](NC(=O)[C@H](CCCCN)NC(=O)COCCOCCNC(=O)COCCOCCNC(=O)CC[C@H](NC(=O)CCCCCCCCCCCCCCCCCCC(=O)O)C(=O)O)C(=O)N[C@@H](CC(N)=O)C(=O)N[C@@H]([C@@H](C)O)C(=O)N[C@@H](C)C(=O)N[C@@H]([C@@H](C)O)C(=O)N1)[C@@H](C)O)C(=O)N1CCC[C@H]1C(=O)N[C@@H](CO)C(=O)N[C@@H](CO)C(=O)N[C@H](C(=O)N[C@@H](CC(N)=O)C(=O)N[C@H](C(=O)NCC(=O)N[C@@H](CO)C(=O)N[C@@H](CC(N)=O)C(=O)N[C@H](C(=O)N1CCC[C@H]1C(N)=O)[C@@H](C)O)C(C)C)[C@@H](C)O
notes: also called compound 20
B2: N^α1-[(4S)-4-carboxy-4-(19-carboxynonadecanoylamino)butanoyl]-[Glu14,Arg17,Pro21,Pro25,Pro28,Pro29]-h-amylin (peptide)
peptide: {C20 diacid-γGlu}-KCNTATCATQRLAEFLRHSSPNFGPILPPTNVGSNTY-NH2
modifications: disulfide 2-7
SMILES: CC[C@H](C)[C@H](NC(=O)[C@@H]1CCCN1C(=O)CNC(=O)[C@H](Cc1ccccc1)NC(=O)[C@H](CC(N)=O)NC(=O)[C@@H]1CCCN1C(=O)[C@H](CO)NC(=O)[C@H](CO)NC(=O)[C@H](Cc1c[nH]cn1)NC(=O)[C@H](CCCNC(=N)N)NC(=O)[C@H](CC(C)C)NC(=O)[C@H](Cc1ccccc1)NC(=O)[C@H](CCC(=O)O)NC(=O)[C@H](C)NC(=O)[C@H](CC(C)C)NC(=O)[C@H](CCCNC(=N)N)NC(=O)[C@H](CCC(N)=O)NC(=O)[C@@H](NC(=O)[C@H](C)NC(=O)[C@@H]1CSSC[C@H](NC(=O)[C@H](CCCCN)NC(=O)CC[C@H](NC(=O)CCCCCCCCCCCCCCCCCCC(=O)O)C(=O)O)C(=O)N[C@@H](CC(N)=O)C(=O)N[C@@H]([C@@H](C)O)C(=O)N[C@@H](C)C(=O)N[C@@H]([C@@H](C)O)C(=O)N1)[C@@H](C)O)C(=O)N[C@@H](CC(C)C)C(=O)N1CCC[C@H]1C(=O)N1CCC[C@H]1C(=O)N[C@H](C(=O)N[C@@H](CC(N)=O)C(=O)N[C@H](C(=O)NCC(=O)N[C@@H](CO)C(=O)N[C@@H](CC(N)=O)C(=O)N[C@H](C(=O)N[C@@H](Cc1ccc(O)cc1)C(N)=O)[C@@H](C)O)C(C)C)[C@@H](C)O
notes: also called compound 6
B3: N^α1-[(4S)-4-carboxy-4-(19-carboxynonadecanoylamino)butanoyl]-[Glu14,Arg17,Pro21,Pro26,Pro37]-h-amylin (peptide)
peptide: {C20 diacid-γGlu}-KCNTATCATQRLAEFLRHSSPNFGAPLSSTNVGSNTP-NH2
modifications: disulfide 2-7
SMILES: CC(C)C[C@H](NC(=O)[C@H](CCCNC(=N)N)NC(=O)[C@H](CCC(N)=O)NC(=O)[C@@H](NC(=O)[C@H](C)NC(=O)[C@@H]1CSSC[C@H](NC(=O)[C@H](CCCCN)NC(=O)CC[C@H](NC(=O)CCCCCCCCCCCCCCCCCCC(=O)O)C(=O)O)C(=O)N[C@@H](CC(N)=O)C(=O)N[C@@H]([C@@H](C)O)C(=O)N[C@@H](C)C(=O)N[C@@H]([C@@H](C)O)C(=O)N1)[C@@H](C)O)C(=O)N[C@@H](C)C(=O)N[C@@H](CCC(=O)O)C(=O)N[C@@H](Cc1ccccc1)C(=O)N[C@@H](CC(C)C)C(=O)N[C@@H](CCCNC(=N)N)C(=O)N[C@@H](Cc1c[nH]cn1)C(=O)N[C@@H](CO)C(=O)N[C@@H](CO)C(=O)N1CCC[C@H]1C(=O)N[C@@H](CC(N)=O)C(=O)N[C@@H](Cc1ccccc1)C(=O)NCC(=O)N[C@@H](C)C(=O)N1CCC[C@H]1C(=O)N[C@@H](CC(C)C)C(=O)N[C@@H](CO)C(=O)N[C@@H](CO)C(=O)N[C@H](C(=O)N[C@@H](CC(N)=O)C(=O)N[C@H](C(=O)NCC(=O)N[C@@H](CO)C(=O)N[C@@H](CC(N)=O)C(=O)N[C@H](C(=O)N1CCC[C@H]1C(N)=O)[C@@H](C)O)C(C)C)[C@@H](C)O
notes: also called compound 5
B4: N^α1-[(4S)-4-carboxy-4-(19-carboxynonadecanoylamino)butanoyl]-[Glu14,Arg17,Pro21,Pro25,Pro28,Pro29,Pro37]-h-amylin (peptide)
peptide: {C20 diacid-γGlu}-KCNTATCATQRLAEFLRHSSPNFGPILPPTNVGSNTP-NH2
modifications: disulfide 2-7
SMILES: CC[C@H](C)[C@H](NC(=O)[C@@H]1CCCN1C(=O)CNC(=O)[C@H](Cc1ccccc1)NC(=O)[C@H](CC(N)=O)NC(=O)[C@@H]1CCCN1C(=O)[C@H](CO)NC(=O)[C@H](CO)NC(=O)[C@H](Cc1c[nH]cn1)NC(=O)[C@H](CCCNC(=N)N)NC(=O)[C@H](CC(C)C)NC(=O)[C@H](Cc1ccccc1)NC(=O)[C@H](CCC(=O)O)NC(=O)[C@H](C)NC(=O)[C@H](CC(C)C)NC(=O)[C@H](CCCNC(=N)N)NC(=O)[C@H](CCC(N)=O)NC(=O)[C@@H](NC(=O)[C@H](C)NC(=O)[C@@H]1CSSC[C@H](NC(=O)[C@H](CCCCN)NC(=O)CC[C@H](NC(=O)CCCCCCCCCCCCCCCCCCC(=O)O)C(=O)O)C(=O)N[C@@H](CC(N)=O)C(=O)N[C@@H]([C@@H](C)O)C(=O)N[C@@H](C)C(=O)N[C@@H]([C@@H](C)O)C(=O)N1)[C@@H](C)O)C(=O)N[C@@H](CC(C)C)C(=O)N1CCC[C@H]1C(=O)N1CCC[C@H]1C(=O)N[C@H](C(=O)N[C@@H](CC(N)=O)C(=O)N[C@H](C(=O)NCC(=O)N[C@@H](CO)C(=O)N[C@@H](CC(N)=O)C(=O)N[C@H](C(=O)N1CCC[C@H]1C(N)=O)[C@@H](C)O)C(C)C)[C@@H](C)O
notes: also called compound 4
B5: N^α1-[(4S)-4-carboxy-4-(19-carboxynonadecanoylamino)butanoyl]-[Glu14,Arg17,Pro21,Pro26]-h-amylin (peptide)
peptide: {C20 diacid-γGlu}-KCNTATCATQRLAEFLRHSSPNFGAPLSSTNVGSNTY-NH2
modifications: disulfide 2-7
SMILES: CC(C)C[C@H](NC(=O)[C@H](CCCNC(=N)N)NC(=O)[C@H](CCC(N)=O)NC(=O)[C@@H](NC(=O)[C@H](C)NC(=O)[C@@H]1CSSC[C@H](NC(=O)[C@H](CCCCN)NC(=O)CC[C@H](NC(=O)CCCCCCCCCCCCCCCCCCC(=O)O)C(=O)O)C(=O)N[C@@H](CC(N)=O)C(=O)N[C@@H]([C@@H](C)O)C(=O)N[C@@H](C)C(=O)N[C@@H]([C@@H](C)O)C(=O)N1)[C@@H](C)O)C(=O)N[C@@H](C)C(=O)N[C@@H](CCC(=O)O)C(=O)N[C@@H](Cc1ccccc1)C(=O)N[C@@H](CC(C)C)C(=O)N[C@@H](CCCNC(=N)N)C(=O)N[C@@H](Cc1c[nH]cn1)C(=O)N[C@@H](CO)C(=O)N[C@@H](CO)C(=O)N1CCC[C@H]1C(=O)N[C@@H](CC(N)=O)C(=O)N[C@@H](Cc1ccccc1)C(=O)NCC(=O)N[C@@H](C)C(=O)N1CCC[C@H]1C(=O)N[C@@H](CC(C)C)C(=O)N[C@@H](CO)C(=O)N[C@@H](CO)C(=O)N[C@H](C(=O)N[C@@H](CC(N)=O)C(=O)N[C@H](C(=O)NCC(=O)N[C@@H](CO)C(=O)N[C@@H](CC(N)=O)C(=O)N[C@H](C(=O)N[C@@H](Cc1ccc(O)cc1)C(N)=O)[C@@H](C)O)C(C)C)[C@@H](C)O
notes: also called compound 7

A word on the IC50: it is the concentration that inhibits the measured activity by half.

Numbered stars: 1 amine (or outer) side, 2 acyl side, 3 side chain; on linkers, the order of the positions; unused ones are H or OH. Bridge positions count the residues as written; N and C are the ends. * marks the point of attachment. C20 diacid = O=C(O)CCCCCCCCCCCCCCCCCCC(=O)*; γGlu = O=C(O)[C@H](CCC(=O)[*:2])N[*:1]; AEEA = NCCOCCOCC(=O)O

The target in one experiment is T1, human amylin 3(a) receptor (human calcitonin receptor plus RAMP-3) (human, UniProt P30988 25-474; O60896 24-148, limits assumed).
T1 sequence (looked up) 1: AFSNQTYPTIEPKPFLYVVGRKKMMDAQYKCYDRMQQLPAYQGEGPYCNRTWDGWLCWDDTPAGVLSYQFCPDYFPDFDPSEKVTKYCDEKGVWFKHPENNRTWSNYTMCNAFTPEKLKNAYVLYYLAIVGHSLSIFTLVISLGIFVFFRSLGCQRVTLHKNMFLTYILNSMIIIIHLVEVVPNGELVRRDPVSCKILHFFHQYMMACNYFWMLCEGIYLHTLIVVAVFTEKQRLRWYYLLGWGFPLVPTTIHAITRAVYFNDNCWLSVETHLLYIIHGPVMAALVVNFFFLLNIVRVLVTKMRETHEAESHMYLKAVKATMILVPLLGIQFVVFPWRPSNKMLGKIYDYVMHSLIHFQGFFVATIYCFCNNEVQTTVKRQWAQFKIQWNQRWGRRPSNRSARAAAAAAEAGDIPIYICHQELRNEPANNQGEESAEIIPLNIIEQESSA
T1 sequence (looked up) 2: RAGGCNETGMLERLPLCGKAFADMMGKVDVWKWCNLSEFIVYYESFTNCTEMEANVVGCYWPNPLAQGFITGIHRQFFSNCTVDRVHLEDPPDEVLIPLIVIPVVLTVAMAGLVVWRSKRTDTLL
Put plainly: cell-based or functional assay.
Take B1: the “Ratio hCT/hAmylin funct.” value is 3.6 and the “hAmylin-R funct. EC50” value is 0.08 nM.

With B2, the “Ratio hCT/hAmylin funct.” value amounted to 5.7 and the “hAmylin-R funct. EC50” value came out at 0.128 nM.

In the case of B3, the “Ratio hCT/hAmylin funct.” value worked out at 1 and the “hAmylin-R funct. EC50” value came to 0.162 nM.

As to B4, the “Ratio hCT/hAmylin funct.” value stood at 1.2 and the “hAmylin-R funct. EC50” value turned out to be 0.06 nM.

Consider B5, for which the “Ratio hCT/hAmylin funct.” value was found to be 4.5 and the “hAmylin-R funct. EC50” value was 0.255 nM.

The next experiment addresses T2, human calcitonin receptor (human, UniProt P30988 25-474).
T2 sequence (looked up): T1 sequence (looked up) 1
Put plainly: cell-based or functional assay.
On to B1, for which the “hCTR funct. EC50” value worked out at 0.285 nM.

Consider B2, for which the “hCTR funct. EC50” value came to 0.729 nM.

Turning to B3, the “hCTR funct. EC50” value turned out to be 0.16 nM.

On to B4, for which the “hCTR funct. EC50” value stood at 0.07 nM.

B5: the “hCTR funct. EC50” value was determined as 1.16 nM.

The next experiment addresses T1, human amylin 3(a) receptor (human …). The experiment can be described thus: SPA competition binding, displacement of 125I-rat amylin from membranes of Amylin 3(a)/CRE-luc BHK cells (Assay V). The procedure: The binding assay was performed using scintillation proximity assay (SPA) beads (RPNQ0001) from PerkinElmer and cell membranes from the Amylin 3(a)/CRE-luc cells (as described in Assay (II)) were used. Membranes were prepared in the following way; the cells were rinsed with PBS and incubated with Versene for approximately 5 min before harvesting. The cells were flushed with PBS and the cell-suspension was centrifuged for 5 min at 1000 rpm. Cells were homogenized (ultrathurrax) in a buffer containing 20 mM Na-HEPES and 10 mM EDTA (pH 7.4) and centrifuged at 20.000 rpm for 15 min. The resulting pellet was resuspended, homogenized and centrifuged (20.000 rpm, 15 min) in a buffer containing 20 mM Na-HEPES and 0.1 mM EDTA (pH 7.4, buffer 2). The resulting pellet was resuspended in buffer 2 and protein concentration was measured (BCA protein Assay, Pierce). The homogenate was kept cold during the whole procedure. The membranes were kept at −80° C. until use. The assay was performed in a 384 well Optiplate (PerkinElmer) in a total volume of 40 ul. Membranes were mixed with SPA beads. Final concentration of membranes 35 ng/μL final and SPA beads was 0.05 mg/well. Test-compounds were dissolved in DMSO and further diluted in assay buffer (50 mM Hepes, pH 7.4, 1 mM CaCl2, 5 mM MgCl₂, 0.1% OA and 0.02% Tween20). […] The final mixture was incubated with shaking at 400 rpm for 120 min at 25° C. prior to centrifugation (1500 rpm, 10 min). Samples were analyzed on TopCounter™ (Packard). The IC₅₀ was calculated using (one site binding competition analysis) GraphPad Prism5 as a measure of receptor affinity.
On the technique in general: In a radioligand displacement assay an active substance lowers the binding of a labelled ligand.
For B1, the IC50 amounted to 0.217 nM.

B2: the IC50 was 0.996 nM.

In the case of B3, the half-maximal inhibitory concentration (IC50) worked out at 0.374 nM.

Turning to B4, the IC50 is 0.321 nM.

As for B5, the IC50 turned out to be 0.674 nM.
